Source: patent US9260500B2, “Peptide and use thereof” (Takeda Pharmaceutical Company Limited, priority 2009, dated 2016)
Starred links: 1 amine or outer side, 2 acyl side, 3 side chain; linkers in the order of their positions; H or OH if unused. Non-standard residues stand in square brackets, D forms with d. *: point of attachment. Ser(Me) = methylated serine, COC[C@H](N[*:1])C(=O)[*:2]; βHOAla = beta-homoalanine (β-HOAla), D- or L-form; Tyr(3-F) = N[C@@H](Cc1ccc(O)c(F)c1)C(=O)O; Phe(3-Me) = Cc1cccc(C[C@H](N)C(=O)O)c1; Phe(4-F) = N[C@@H](Cc1ccc(F)cc1)C(=O)O; 4Pal = N[C@@H](Cc1ccncc1)C(=O)O; Cha = N[C@@H](CC1CCCCC1)C(=O)O; Gly(cPr) = N[C@H](C(=O)O)C1CC1; dIva = CC[C@@](C)(N)C(=O)O; hSer = N[C@@H](CCO)C(=O)O; Isobutyryl = CC(C)C(=O)*; Abu = CC[C@H](N)C(=O)O; Aib = CC(C)(N)C(=O)O

Legend:
human Y2 receptor [1] = target: T1, human Y2 receptor (Homo sapiens, UniProt P49146); test: Receptor Binding Assay (RBA) for Human Y2, [125I]-PYY displacement on hY2R/CHO membrane fraction; conditions: IC50 of test compound/IC50 of PYY(3-36) (PYY(3-36) taken as 1)
T1 construct: expressed in transfected cells; membrane fraction
T1 sequence (P49146 1-381): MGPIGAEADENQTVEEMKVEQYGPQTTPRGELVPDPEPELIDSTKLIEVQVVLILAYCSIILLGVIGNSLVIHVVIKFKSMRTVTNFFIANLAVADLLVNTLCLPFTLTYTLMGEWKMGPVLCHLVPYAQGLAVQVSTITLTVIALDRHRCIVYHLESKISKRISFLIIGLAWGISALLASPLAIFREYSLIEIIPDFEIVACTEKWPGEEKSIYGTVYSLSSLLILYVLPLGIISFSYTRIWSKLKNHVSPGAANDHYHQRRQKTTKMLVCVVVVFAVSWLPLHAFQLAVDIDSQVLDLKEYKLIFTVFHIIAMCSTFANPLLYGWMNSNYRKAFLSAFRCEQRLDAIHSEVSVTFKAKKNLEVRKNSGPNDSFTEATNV
Method: (1) Construction of Expression Plasmid for the Human Y2 Receptor (Y2R) Gene
PCR was performed by a reaction using Pfu DNA polymerase ([…]), with a human brain cDNA (PT3158-1, Clontech) as the template, wherein synthetic DNAs with the following sequences were used as a combination of 5′ and 3′ primers, whereby the human Y2R gene was cloned. Primer 1 was prepared on the basis of base sequence information on the human Y2R gene (Refseq ID No. NM_000910) with the addition of Kozak's consensus sequence. Primer 2 was prepared on the basis of base sequence information on the human Y2R gene.
The PCR product obtained was cloned into pCR4-Blunt-TOPO (Invitrogen), and the plasmid was extracted according to a conventional method (QIAwell 8 Plus, QIAGEN). After confirming the base sequence, the human Y2R gene was re-cloned by a PCR reaction with the plasmid DNA as the template, using Primer 1 as the 5′ primer and Primer 2 as the 3′ primer. The PCR was performed using the Pyrobest DNA polymerase (TaKaRa). The PCR product obtained was re-cloned into pCR-Blunt II-TOPO (Invitrogen), and the plasmid was extracted according to a conventional method (QIAGEN). An Xho I restriction enzyme digestion site and an Spe I restriction enzyme digestion site are present in the cloning site of the pCR-Blunt II-TOPO; a plasmid clone was selected wherein the human Y2R gene was inserted in the orientation such that the Xho I restriction enzyme digestion site was positioned upstream of Primer 1, and the Spe I restriction enzyme digestion site was positioned downstream of Primer 2. After confirming the base sequence, the plasmid clone was digested with the restriction enzymes Xho I and Spe I to yield a DNA fragment. The DNA fragment was inserted into the animal cell expression vector pAKKO-111H (the same plasmid as pAKKO-1.111H described in Biochem. Biophys. Acta, Hinuma, S. et al., 1219, 251-259 (1994)), which was enzymatically digested with Sal I and Spe I, to yield the expression plasmid pAK-hY2R (pAKKO-111H/Y2R).
(2) Test Method: Receptor Binding Assay (RBA) for Human Y2
A human NPY2R (hY2R) stable expression cell line was acquired by transducing the animal cell expression plasmid pAK-hY2R into CHO/dhfr-cells using the CellPhect Transfection kit (Amersham Pharmacia Biotech Co.). First, 240 μl of Buffer A (attached to the CellPhect Transfection kit) was added to 9.6 μg of the plasmid DNA dissolved in 240 μl of distilled water; this mixture was stirred and allowed to stand for 10 minutes, after which 480 μL of Buffer B (attached to the CellPhect Transfection kit) was added, and the mixture was vigorously stirred to form a liposome containing the DNA. 2.5×10^5 or 4×10^5 CHO/dhfr− cells (obtained from ATCC) were seeded to 60 mm petri dishes, and cultured in Ham's F-12 medium (Sigma Co.) containing 10% fetal bovine serum (BioWest Co.) at 37° C. in 5% gaseous carbon dioxide for 1 day, after which 480 μL of the liposome was added drop by drop on to the cells in each petri dish. This was cultured at 37° C. in 5% gaseous carbon dioxide for 6 hours, after which the cells were twice washed with serum-free Ham's F-12 medium; 3 mL of 15% glycerol was added onto the cells in the petri dish and treated for 2 minutes. This was again washed 3 times with serum-free Ham's F-12 medium, after which the cells were cultured in Ham's F-12 medium containing 10% fetal bovine serum at 37° C. in 5% gaseous carbon dioxide. The cells were dispersed by trypsinization and recovered from the petri dishes, and seeded to a 6-well plate at 2.5×10^4 or 4×10^4 cells per well; cultivation was begun in Dulbecco's modified Eagle medium <DMEM> medium (Sigma Co.) containing dialyzed 10% fetal bovine serum (Invitrogen Co.) at 37° C. in 5% gaseous carbon dioxide. Since plasmid-introduced transformant CHO cells grow in the medium, whereas cells without plasmid introduction die gradually, about 20 colonies of transformed CHO cell that had grown 9-13 days after the start of the cultivation were isolated. […]

human Y2 receptor [2] = target: T1, human Y2 receptor; test: Human Y2 Receptor G Protein Binding Assay (GBA), [35S]GTPγS; assay type: biochemical; conditions: EC50 of test compound/EC50 of PYY(3-36) (PYY3-36 taken as 1), hY2R/CHO membrane fraction
Method: (3) Test Method: Human Y2 Receptor G Protein Binding Assay (GBA)
The agonist activity of the compound of the present invention against the human Y2 receptor was measured by the method described below.
2 μL of the test compound, serially diluted with DMSO from 100 μM to 1 nM, was dispensed to a 96-well plate, and 100 μL of the membrane fraction, previously diluted with an assay buffer (50 mM Tris, 5 mM MgCl2, 150 mM NaCl, […], 0.03% NaN3, 0.1% BSA, pH 7.4) to 1 μg protein/mL, was dispensed thereto, subsequently, 100 μL of a [^35S]GTPγS (NEG030H, PerkinElmer, previously diluted with the assay buffer to 1 nM) was added, and they were mixed by pipetting. After incubation at room temperature for 120 minutes, the mixture was filtered through the cell harvester FilterMate (PerkinElmer) using the UniFilter-96 GF/C (PerkinElmer), and the filter was washed 3 times with a filtering buffer (50 mM Tris, 5 mM MgCl2, 150 mM NaCl, 0.03% NaN3, 0.05% CHAPS, pH 7.4). Thereafter, UniFilter-96 GF/C was dried in a mechanical drier for 1 hour, 15 μl of the liquid scintillator MicroScint O (PerkinElmer) was added to each well, and a measurement was taken using TopCount (PerkinElmer). The data obtained were analyzed using Prism to calculate the EC50 value. The agonist activity of the test compound was expressed as a ratio to the EC50 value of PYY3-36 taken as 1 (EC50 Ratio: EC50 of test compound/EC50 of PYY(3-36)). The results are shown in the GBA column in Table 5 (Table 5-1-Table 5-10).

Substance | RBA IC50 Ratio (human Y2 receptor [1]) | GBA EC50 Ratio (human Y2 receptor [2])
Ac-[D-Pro24, Pya(4)26, Cha27, Aib28,31, Lys30, Phe(3Me)36]-PYY(23-36) (Ac-S[dP]R[4Pal][Cha][Aib]NK[Aib]TRQR[Phe(3-Me)]-NH2; SMILES CC(=O)N[C@@H](CO)C(=O)N1CCC[C@@H]1C(=O)N[C@@H](CCCNC(=N)N)C(=O)N[C@@H](Cc1ccncc1)C(=O)N[C@@H](CC1CCCCC1)C(=O)NC(C)(C)C(=O)N[C@@H](CC(N)=O)C(=O)N[C@@H](CCCCN)C(=O)NC(C)(C)C(=O)N[C@H](C(=O)N[C@@H](CCCNC(=N)N)C(=O)N[C@@H](CCC(N)=O)C(=O)N[C@@H](CCCNC(=N)N)C(=O)N[C@@H](Cc1cccc(C)c1)C(N)=O)[C@@H](C)O) [compound No. 260] | 0.91 | 1.2
Isobutanoyl-[Abu26, Cha27,28, Aib31, Tyr(3F)36]-PYY(25-36) (Isobutyryl-R[Abu][Cha][Cha]NL[Aib]TRQR[Tyr(3-F)]-NH2; SMILES CC[C@H](NC(=O)[C@H](CCCNC(=N)N)NC(=O)C(C)C)C(=O)N[C@@H](CC1CCCCC1)C(=O)N[C@@H](CC1CCCCC1)C(=O)N[C@@H](CC(N)=O)C(=O)N[C@@H](CC(C)C)C(=O)NC(C)(C)C(=O)N[C@H](C(=O)N[C@@H](CCCNC(=N)N)C(=O)N[C@@H](CCC(N)=O)C(=O)N[C@@H](CCCNC(=N)N)C(=O)N[C@@H](Cc1ccc(O)c(F)c1)C(N)=O)[C@@H](C)O) [compound No. 87] | 26 | 20
Ac-[D-Iva23, D-Pro24, Cha27,28,36, Aib31]-PYY(23-36) (Ac-[dIva][dP]RH[Cha][Cha]NL[Aib]TRQR[Cha]-NH2; SMILES CC[C@@](C)(NC(C)=O)C(=O)N1CCC[C@@H]1C(=O)N[C@@H](CCCNC(=N)N)C(=O)N[C@@H](Cc1c[nH]cn1)C(=O)N[C@@H](CC1CCCCC1)C(=O)N[C@@H](CC1CCCCC1)C(=O)N[C@@H](CC(N)=O)C(=O)N[C@@H](CC(C)C)C(=O)NC(C)(C)C(=O)N[C@H](C(=O)N[C@@H](CCCNC(=N)N)C(=O)N[C@@H](CCC(N)=O)C(=O)N[C@@H](CCCNC(=N)N)C(=O)N[C@@H](CC1CCCCC1)C(N)=O)[C@@H](C)O) [compound No. 183] | 20 | 31
Ac-[Ser(Me)23, D-Pro24, Abu26, Cha27,28,36, Aib31]-PYY(23-36) (Ac-[Ser(Me)][dP]R[Abu][Cha][Cha]NL[Aib]TRQR[Cha]-NH2; SMILES CC[C@H](NC(=O)[C@H](CCCNC(=N)N)NC(=O)[C@H]1CCCN1C(=O)[C@H](COC)NC(C)=O)C(=O)N[C@@H](CC1CCCCC1)C(=O)N[C@@H](CC1CCCCC1)C(=O)N[C@@H](CC(N)=O)C(=O)N[C@@H](CC(C)C)C(=O)NC(C)(C)C(=O)N[C@H](C(=O)N[C@@H](CCCNC(=N)N)C(=O)N[C@@H](CCC(N)=O)C(=O)N[C@@H](CCCNC(=N)N)C(=O)N[C@@H](CC1CCCCC1)C(N)=O)[C@@H](C)O) [compound No. 106] | 5.2 | 3.8
Ac-[β-HOAla24, Pya(4)26, Cha27,36, Aib28,31, Lys30]-PYY(23-36) [compound No. 244] (Ac-S[βHOAla]R[4Pal][Cha][Aib]NK[Aib]TRQR[Cha]-NH2; also: former peak, β-HOAla D/L configuration not assigned) | 2.4 | 2.8
Ac-[D-Pro24, Hse26, Cha27,36, Aib28,31]-PYY(23-36) (Ac-S[dP]R[hSer][Cha][Aib]NL[Aib]TRQR[Cha]-NH2; SMILES CC(=O)N[C@@H](CO)C(=O)N1CCC[C@@H]1C(=O)N[C@@H](CCCNC(=N)N)C(=O)N[C@@H](CCO)C(=O)N[C@@H](CC1CCCCC1)C(=O)NC(C)(C)C(=O)N[C@@H](CC(N)=O)C(=O)N[C@@H](CC(C)C)C(=O)NC(C)(C)C(=O)N[C@H](C(=O)N[C@@H](CCCNC(=N)N)C(=O)N[C@@H](CCC(N)=O)C(=O)N[C@@H](CCCNC(=N)N)C(=O)N[C@@H](CC1CCCCC1)C(N)=O)[C@@H](C)O) [compound No. 128] | 11 | 5.4
Ac-[D-Pro24, Pya(4)26, Phe(4F)27, Aib28,31, Lys30, Cha36]-PYY(23-36) (Ac-S[dP]R[4Pal][Phe(4-F)][Aib]NK[Aib]TRQR[Cha]-NH2; SMILES CC(=O)N[C@@H](CO)C(=O)N1CCC[C@@H]1C(=O)N[C@@H](CCCNC(=N)N)C(=O)N[C@@H](Cc1ccncc1)C(=O)N[C@@H](Cc1ccc(F)cc1)C(=O)NC(C)(C)C(=O)N[C@@H](CC(N)=O)C(=O)N[C@@H](CCCCN)C(=O)NC(C)(C)C(=O)N[C@H](C(=O)N[C@@H](CCCNC(=N)N)C(=O)N[C@@H](CCC(N)=O)C(=O)N[C@@H](CCCNC(=N)N)C(=O)N[C@@H](CC1CCCCC1)C(N)=O)[C@@H](C)O) [compound No. 305] | 10 | 3.9
Isobutanoyl-[Abu26, Cha27,36, Gly(cPr)28, Aib31]-PYY(25-36) (Isobutyryl-R[Abu][Cha][Gly(cPr)]NL[Aib]TRQR[Cha]-NH2; SMILES CC[C@H](NC(=O)[C@H](CCCNC(=N)N)NC(=O)C(C)C)C(=O)N[C@@H](CC1CCCCC1)C(=O)N[C@H](C(=O)N[C@@H](CC(N)=O)C(=O)N[C@@H](CC(C)C)C(=O)NC(C)(C)C(=O)N[C@H](C(=O)N[C@@H](CCCNC(=N)N)C(=O)N[C@@H](CCC(N)=O)C(=O)N[C@@H](CCCNC(=N)N)C(=O)N[C@@H](CC1CCCCC1)C(N)=O)[C@@H](C)O)C1CC1) [compound No. 93] | 52 | 41
